Article PMC7021693
pKd: −log10 of the molar value. Like-named read-outs stand apart in the source and are kept apart here. Values belong to the substance of their own block, whether it stands above or below them.

Key:
[1] = target: ziv-aflibercept (Zaltrap, 25 mg/mL) (human); assay: SEC; as a9; sample: ziv-AFL diluted in GndHCl 8 M
[2] = target: ziv-aflibercept (Zaltrap, 25 mg/mL) (human); assay: SEC; as a9; sample: ziv-AFL diluted in NaCl 1.5 M
[3] = target: ziv-aflibercept (Zaltrap, 25 mg/mL) (human); assay: SEC; as a9; sample: ziv-AFL 25 mg/mL, 60 °C for 1 h
[4] = target: ziv-aflibercept (Zaltrap, 25 mg/mL) (human); assay: SEC; as a9; sample: ziv-AFL 25 mg/mL, 60 °C for 2 h
[5] = target: ziv-aflibercept (Zaltrap, 25 mg/mL) (human); assay: SEC; as a9; sample: ziv-AFL 25 mg/mL, 60 °C for 3 h
[6] = target: ziv-aflibercept (Zaltrap, 25 mg/mL) (human); assay: SEC; as a9; sample: ziv-AFL medicine adjusted to pH 5.2
[7] = target: ziv-aflibercept (Zaltrap, 25 mg/mL) (human); assay: SEC; as a9; sample: ziv-AFL medicine adjusted to pH 7.2
[8] = target: ziv-aflibercept (Zaltrap, 25 mg/mL) (human); assay: SEC; as a9; sample: ziv-AFL 25 mg/mL, 1 freeze-thaw cycle
[9] = target: ziv-aflibercept (Zaltrap, 25 mg/mL) (human); assay: SEC; as a9; sample: ziv-AFL 25 mg/mL, 2 freeze-thaw cycles
VEGF [10] = target: VEGF (UniProt P15692); assay: ELISA; as a1; sample: ziv-AFL medicine adjusted to pH 7.2 with 1 M NH3
VEGF [11] = target: VEGF (UniProt P15692); assay: ELISA; as a1; sample: ziv-AFL medicine adjusted to pH 5.2 with 0.1 M HCl
[12] = target: ziv-aflibercept (Zaltrap, 25 mg/mL) (human); assay: SEC; as a9; sample: ziv-AFL 25 mg/mL, light irradiation (250 W/m^2) for 12 h
[13] = target: ziv-aflibercept (Zaltrap, 25 mg/mL) (human); assay: as above; remark: listed apart in the source
[14] = target: ziv-aflibercept (Zaltrap, 25 mg/mL) (human); assay: SEC; SE-HPLC/DAD, SEC-5 column, 25 °C, 150 mM phosphate pH 7.0, 0.35 mL/min, 1 ul injected; masses estimated from the column calibration; sample: fresh (control) ziv-AFL 25 mg/mL
VEGF-A165 (Homo sapiens) [15] = target: VEGF-A165 (Homo sapiens) (UniProt P15692); details: cited from earlier work
VEGF-A165 (Homo sapiens), sequence (P15692 whole entry): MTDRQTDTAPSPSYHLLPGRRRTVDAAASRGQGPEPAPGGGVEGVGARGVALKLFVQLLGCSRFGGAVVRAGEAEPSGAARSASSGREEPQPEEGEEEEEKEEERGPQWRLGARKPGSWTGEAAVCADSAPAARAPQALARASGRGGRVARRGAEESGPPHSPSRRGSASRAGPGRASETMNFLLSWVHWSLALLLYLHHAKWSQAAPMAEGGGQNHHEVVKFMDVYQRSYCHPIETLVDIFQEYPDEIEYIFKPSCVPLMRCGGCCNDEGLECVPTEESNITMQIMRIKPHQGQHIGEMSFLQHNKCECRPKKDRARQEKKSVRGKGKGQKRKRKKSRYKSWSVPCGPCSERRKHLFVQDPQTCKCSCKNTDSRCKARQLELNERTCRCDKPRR

[16] = SEC; as a9; sample: ziv-AFL diluted in GndHCl 8 M
[17] = SEC; as a9; sample: ziv-AFL diluted in NaCl 1.5 M
[18] = SEC; as a9; sample: ziv-AFL 25 mg/mL, 60 °C for 1 h
[19] = SEC; as a9; sample: ziv-AFL 25 mg/mL, 60 °C for 3 h
[20] = SEC; as a9; sample: ziv-AFL medicine adjusted to pH 5.2
VEGF-A165 (Homo sapiens) [21] = target: VEGF-A165 (Homo sapiens) (UniProt P15692); details: cited from earlier work; remark: listed apart in the source

ziv-aflibercept (Zaltrap, 25 mg/mL), sequence (chain): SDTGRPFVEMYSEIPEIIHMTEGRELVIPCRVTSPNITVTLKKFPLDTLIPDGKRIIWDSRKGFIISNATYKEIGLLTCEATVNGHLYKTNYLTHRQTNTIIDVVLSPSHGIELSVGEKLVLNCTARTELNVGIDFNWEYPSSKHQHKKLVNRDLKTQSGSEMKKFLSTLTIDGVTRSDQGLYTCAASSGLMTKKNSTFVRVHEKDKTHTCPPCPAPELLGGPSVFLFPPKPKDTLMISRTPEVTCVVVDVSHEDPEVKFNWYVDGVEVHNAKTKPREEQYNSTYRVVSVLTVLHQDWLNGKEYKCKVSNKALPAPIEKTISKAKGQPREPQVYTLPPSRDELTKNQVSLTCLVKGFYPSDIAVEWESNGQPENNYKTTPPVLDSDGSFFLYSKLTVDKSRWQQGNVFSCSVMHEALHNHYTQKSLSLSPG
ziv-aflibercept (Zaltrap, 25 mg/mL) (Fc fusion), sequence (chain): as above
VEGFR2, sequence (P35968 20-1356): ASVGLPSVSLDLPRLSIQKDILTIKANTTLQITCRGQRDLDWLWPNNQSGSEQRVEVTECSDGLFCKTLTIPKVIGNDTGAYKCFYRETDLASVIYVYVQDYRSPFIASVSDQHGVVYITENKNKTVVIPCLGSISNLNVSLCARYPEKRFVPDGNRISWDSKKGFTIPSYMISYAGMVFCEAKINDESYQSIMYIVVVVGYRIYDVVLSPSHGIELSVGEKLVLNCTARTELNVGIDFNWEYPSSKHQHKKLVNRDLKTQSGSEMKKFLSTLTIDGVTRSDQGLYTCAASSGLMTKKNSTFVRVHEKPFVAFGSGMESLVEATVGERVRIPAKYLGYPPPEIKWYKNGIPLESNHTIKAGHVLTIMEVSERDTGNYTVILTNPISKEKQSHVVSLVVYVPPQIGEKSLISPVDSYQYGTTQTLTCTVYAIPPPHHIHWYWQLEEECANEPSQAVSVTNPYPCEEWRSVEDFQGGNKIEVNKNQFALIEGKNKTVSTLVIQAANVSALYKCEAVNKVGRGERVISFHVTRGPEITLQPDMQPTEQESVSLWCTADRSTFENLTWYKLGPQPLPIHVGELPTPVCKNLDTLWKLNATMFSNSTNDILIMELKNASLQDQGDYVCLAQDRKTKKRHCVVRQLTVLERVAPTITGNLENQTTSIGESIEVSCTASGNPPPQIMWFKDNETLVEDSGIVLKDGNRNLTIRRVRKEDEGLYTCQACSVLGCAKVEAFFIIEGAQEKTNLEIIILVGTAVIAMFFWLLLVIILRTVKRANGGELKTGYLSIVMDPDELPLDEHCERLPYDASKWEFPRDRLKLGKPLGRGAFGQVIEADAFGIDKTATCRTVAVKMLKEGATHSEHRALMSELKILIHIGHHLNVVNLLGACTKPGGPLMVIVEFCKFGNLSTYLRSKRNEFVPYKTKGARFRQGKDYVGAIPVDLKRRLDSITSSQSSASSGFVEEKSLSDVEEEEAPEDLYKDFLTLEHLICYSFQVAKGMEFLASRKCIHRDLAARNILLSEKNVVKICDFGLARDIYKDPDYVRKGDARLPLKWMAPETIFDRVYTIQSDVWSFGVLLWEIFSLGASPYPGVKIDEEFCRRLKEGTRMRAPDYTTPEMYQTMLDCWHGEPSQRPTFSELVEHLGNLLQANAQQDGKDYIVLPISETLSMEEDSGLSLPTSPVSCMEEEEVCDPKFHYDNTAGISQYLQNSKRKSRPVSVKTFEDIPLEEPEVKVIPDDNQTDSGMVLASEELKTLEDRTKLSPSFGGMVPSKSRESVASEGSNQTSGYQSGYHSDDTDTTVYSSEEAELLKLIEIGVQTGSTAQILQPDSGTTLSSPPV
VEGFR1, sequence (P17948 27-1338): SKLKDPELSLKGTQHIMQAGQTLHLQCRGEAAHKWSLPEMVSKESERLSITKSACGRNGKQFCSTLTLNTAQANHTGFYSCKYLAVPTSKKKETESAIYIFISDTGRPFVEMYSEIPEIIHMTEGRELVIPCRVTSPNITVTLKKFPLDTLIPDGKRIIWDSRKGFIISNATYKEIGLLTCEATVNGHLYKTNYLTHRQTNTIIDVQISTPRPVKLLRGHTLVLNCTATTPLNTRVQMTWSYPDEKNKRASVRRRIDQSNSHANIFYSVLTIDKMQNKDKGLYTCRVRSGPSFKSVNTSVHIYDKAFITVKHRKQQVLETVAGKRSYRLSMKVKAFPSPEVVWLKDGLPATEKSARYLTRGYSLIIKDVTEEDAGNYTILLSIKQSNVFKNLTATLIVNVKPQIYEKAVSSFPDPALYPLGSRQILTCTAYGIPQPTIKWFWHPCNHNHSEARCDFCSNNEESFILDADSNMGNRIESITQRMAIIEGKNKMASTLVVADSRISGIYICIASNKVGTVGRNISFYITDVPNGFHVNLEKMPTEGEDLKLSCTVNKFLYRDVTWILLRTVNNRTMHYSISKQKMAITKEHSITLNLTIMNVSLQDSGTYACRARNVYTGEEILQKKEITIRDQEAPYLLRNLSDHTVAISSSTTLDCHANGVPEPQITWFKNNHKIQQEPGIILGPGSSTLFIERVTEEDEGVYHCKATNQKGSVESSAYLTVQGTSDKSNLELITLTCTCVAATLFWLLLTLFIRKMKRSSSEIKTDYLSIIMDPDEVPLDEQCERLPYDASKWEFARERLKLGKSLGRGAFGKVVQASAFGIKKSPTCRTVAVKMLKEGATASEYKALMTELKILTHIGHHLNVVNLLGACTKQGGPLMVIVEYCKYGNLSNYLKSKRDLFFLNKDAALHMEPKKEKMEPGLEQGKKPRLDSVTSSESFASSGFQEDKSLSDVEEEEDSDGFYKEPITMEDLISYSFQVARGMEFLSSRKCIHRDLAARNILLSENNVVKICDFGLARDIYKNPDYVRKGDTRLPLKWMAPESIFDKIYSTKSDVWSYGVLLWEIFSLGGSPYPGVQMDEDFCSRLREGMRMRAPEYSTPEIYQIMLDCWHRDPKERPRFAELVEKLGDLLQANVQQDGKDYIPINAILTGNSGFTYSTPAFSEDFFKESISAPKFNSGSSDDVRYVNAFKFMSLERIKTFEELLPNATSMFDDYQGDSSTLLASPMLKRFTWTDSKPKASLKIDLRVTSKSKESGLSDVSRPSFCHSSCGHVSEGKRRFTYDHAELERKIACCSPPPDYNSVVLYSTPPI

abundance of dimer (% of total peak area) [1]: 19% | abundance of dimer (% of total peak area) [2]: 1.4% | abundance of dimer (% of total peak area) [3]: 8% | abundance of dimer (% of total peak area) [4]: 7.8% | stoichiometry N [4]: 10 | abundance of dimer (% of total peak area) [5]: 7.7% | abundance of dimer (% of total peak area) [6]: 2% | abundance of dimer (% of total peak area) [7]: 1.8% | abundance of dimer (% of total peak area) [8]: 1.9% | abundance of dimer (% of total peak area) [9]: 2.1% | remaining biological activity (ELISA against the control, test samples at 10 and 100 µg/ml) (VEGF [10]): 36% | remaining biological activity (ELISA against the control, test samples at 10 and 100 µg/ml) (VEGF [11]): 25% | abundance of dimer (% of total peak area) [12]: 12.4% | abundance of dimer (% of total peak area) [13]: 12.2% | abundance of dimer (% of total peak area) [14]: 1.9% | stoichiometry N [14]: 2
Substance: ziv-aflibercept (Zaltrap, 25 mg/mL) (Fc fusion)

Substance: VEGFR1 (from UniProt P17948)
pKd (VEGF-A165 (Homo sapiens) [15]): 11.03

Substance: ziv-aflibercept (Zaltrap, 25 mg/mL)
abundance of non-natural HMW aggregates (% of total peak area) [16]: 7.2% and a higher order of aggregation at 5.46 min (5.56%) | abundance of non-natural HMW aggregates (% of total peak area) [17]: 1.1% | abundance of non-natural HMW aggregates (% of total peak area) [18]: 22.1% | abundance of non-natural HMW aggregates (% of total peak area) [19]: 55.2% | abundance of non-natural HMW aggregates (% of total peak area) [20]: 0.8%

Substance: VEGFR2 (from UniProt P35968)
pKd (VEGF-A165 (Homo sapiens) [21]): 10.05
